The results in this text go back to IntAct's records for PubMed 25150978.

The target in the test is arhg7_human ARHGEF7 (UniProt Q14155).

Turning to “Ras-related C3 botulinum toxin substrate 1 (Homo sapiens) (from UniProt P63000-1) G15A”, the “effect of a mutation on the interaction” value is on record as “increasing interaction strength”.
